T1: engineered version of human C5aR expressed on CHO cells of the PathHunter β-arrestin assay (DiscoveRx) (human, UniProt P21730 1-350)
T1 sequence (looked up): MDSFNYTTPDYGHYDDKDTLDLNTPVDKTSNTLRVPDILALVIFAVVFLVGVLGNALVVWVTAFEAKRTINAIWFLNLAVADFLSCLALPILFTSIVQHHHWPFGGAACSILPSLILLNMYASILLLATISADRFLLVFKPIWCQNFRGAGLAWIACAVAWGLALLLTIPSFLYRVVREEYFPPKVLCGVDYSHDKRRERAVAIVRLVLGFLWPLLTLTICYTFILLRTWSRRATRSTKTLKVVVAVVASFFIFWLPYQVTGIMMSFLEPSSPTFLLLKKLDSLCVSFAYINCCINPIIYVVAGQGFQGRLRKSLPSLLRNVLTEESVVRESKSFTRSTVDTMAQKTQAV

T2: full length human C5aR stably expressed on CHO Flp-In cells (human, UniProt P21730 1-350)
T2 construct: also called human C5aR expressed on CHO cells
T2 sequence: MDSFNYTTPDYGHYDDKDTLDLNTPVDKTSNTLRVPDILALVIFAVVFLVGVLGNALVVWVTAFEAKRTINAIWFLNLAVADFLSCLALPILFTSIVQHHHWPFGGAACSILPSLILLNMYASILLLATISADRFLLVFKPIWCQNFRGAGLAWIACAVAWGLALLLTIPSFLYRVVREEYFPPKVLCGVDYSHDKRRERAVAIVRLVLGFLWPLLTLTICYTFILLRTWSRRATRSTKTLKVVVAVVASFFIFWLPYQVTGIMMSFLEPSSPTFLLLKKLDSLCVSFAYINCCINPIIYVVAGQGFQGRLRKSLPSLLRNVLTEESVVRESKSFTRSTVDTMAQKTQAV

T3: full length cynomolgus C5aR stably expressed on CHO Flp-In cells (cynomolgus monkey (Macaca fascicularis))
T3 chain: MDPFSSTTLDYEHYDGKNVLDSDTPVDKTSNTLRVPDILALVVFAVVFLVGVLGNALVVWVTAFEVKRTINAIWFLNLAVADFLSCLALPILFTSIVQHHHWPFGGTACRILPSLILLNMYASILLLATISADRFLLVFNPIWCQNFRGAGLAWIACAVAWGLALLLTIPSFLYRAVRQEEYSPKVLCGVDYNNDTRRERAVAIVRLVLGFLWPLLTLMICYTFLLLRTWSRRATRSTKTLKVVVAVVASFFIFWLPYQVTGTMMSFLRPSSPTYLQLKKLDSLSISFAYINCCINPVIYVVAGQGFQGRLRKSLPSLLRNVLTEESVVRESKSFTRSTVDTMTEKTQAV

T4: C5aR expressed on purified cynomolgus neutrophils (cynomolgus monkey (Macaca fascicularis))
T4 construct: Endogenous receptor on neutrophils from whole blood of three animals; also called cynomolgus C5aR expressed endogenously
T4 chain: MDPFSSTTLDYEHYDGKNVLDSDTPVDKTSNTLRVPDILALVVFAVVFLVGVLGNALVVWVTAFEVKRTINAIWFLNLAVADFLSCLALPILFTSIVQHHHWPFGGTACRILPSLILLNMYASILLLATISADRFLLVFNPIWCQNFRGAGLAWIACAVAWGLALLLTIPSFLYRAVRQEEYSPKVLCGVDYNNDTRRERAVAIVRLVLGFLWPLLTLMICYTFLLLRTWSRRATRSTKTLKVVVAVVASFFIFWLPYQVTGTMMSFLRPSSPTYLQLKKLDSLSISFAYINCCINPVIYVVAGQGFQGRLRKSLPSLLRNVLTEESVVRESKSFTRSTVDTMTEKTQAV

T5: C5aR expressed on purified human neutrophils (human, UniProt P21730 1-350)
T5 sequence (looked up): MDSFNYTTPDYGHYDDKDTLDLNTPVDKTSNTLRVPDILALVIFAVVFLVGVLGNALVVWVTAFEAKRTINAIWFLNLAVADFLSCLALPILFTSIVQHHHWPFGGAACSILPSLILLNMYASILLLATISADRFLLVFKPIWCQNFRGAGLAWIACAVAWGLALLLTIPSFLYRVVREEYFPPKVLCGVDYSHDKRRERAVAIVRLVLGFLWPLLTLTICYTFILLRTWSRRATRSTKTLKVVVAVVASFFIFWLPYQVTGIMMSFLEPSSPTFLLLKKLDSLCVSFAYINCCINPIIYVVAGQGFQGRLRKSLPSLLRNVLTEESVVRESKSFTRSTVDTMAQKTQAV


Experiments:
[1] = target: T1, engineered version of human C5aR …; experiment: cell-based or functional assay
[2] = target: T2, full length human C5aR stably expressed …; experiment: FACS on Flp-In CHO cells, IgG titration
Experimental: (§1) The C5aR-CHO Flp-In™ cell lines were blocked and IgGs were added either in serial dilutions or at a single (high) concentration of 300 nM. For detection of IgG binding, an R-phycoerythrin (R-PE) conjugated anti-human IgG (Fc-gamma fragment specific)2 antibody was added and fluorescence was measured using the FACS Array or Novocyte device.

[3] = target: T3, full length cynomolgus C5aR stably …; experiment: FACS, CHO Flp-In cells expressing cynomolgus C5aR, single IgG concentration
Experimental: as §1

[4] = target: T4, C5aR expressed on purified cynomolgus …; experiment: FACS, purified cynomolgus neutrophils, IgG titration
Experimental: (§2) Neutrophils were purified from EDTA-whole blood samples using a MACSexpress® Neutrophil Isolation Cocktail from Miltenyi Biotec. Briefly, using this kit, cells are isolated using magnetic labeling and negative magnetic separation. […] Measurements were done at the FACS Array device. FACS data were evaluated using FlowJo™, entered into GraphPad® Prism (v4.0) and fitted to the sigmoidal dose-response curve using non-linear regression to calculate the EC50.

[5] = target: T5, C5aR expressed on purified human …; experiment: cell-based or functional assay
[6] = target: T5, C5aR expressed on purified human …; experiment: FACS on purified human neutrophils, IgG titration
Experimental: as §2

[7] = target: T1, engineered version of human C5aR …; experiment: cell-based or functional assay; remark: listed apart in the source
[8] = target: T5, C5aR expressed on purified human …; experiment: cell-based or functional assay; remark: listed apart in the source

| Binder | Activity of human C5a EC50 (nM) in absence of anti-C5aR antibody, β-arrestin recruitment (PathHunter) [1] | EC50 [2] | binding result [3] | binding result [4] | Activity of human C5a EC50 (nM) in presence of 50 nM anti-C5aR antibody, β-arrestin recruitment [1] | CD11b assay, granulocytes, 15 nM C5a, 20 minutes of IgG incubation: IC50 [5] | CD11b assay, granulocytes, 15 nM C5a, 300 minutes of IgG incubation: IC50 [5] | CD11b assay, monocytes, 15 nM C5a, 20 minutes of IgG incubation: IC50 [5] | CD11b assay, monocytes, 15 nM C5a, 300 minutes of IgG incubation: IC50 [5] | EC50 [6] | [%] inhibition at 1.2 nM C5a and 50 nM IgG, β-arrestin recruitment [7] | [%] inhibition at 11 nM C5a and 50 nM IgG, β-arrestin recruitment [7] | [%] inhibition at 100 nM C5a and 50 nM IgG, β-arrestin recruitment [7] | IgG concentration for 50% inhibition of CD11b upregulation, granulocytes, 15 nM human C5a [8] | IgG concentration for 50% inhibition of CD11b upregulation, granulocytes, 150 nM human C5a [8] |
| --- | --- | --- | --- | --- | --- | --- | --- | --- | --- | --- | --- | --- | --- | --- | --- |
| Human C5a (ligand) TLQKKIEEIAAKYKHSVVKKCCYDGACVNNDETCEQRAARISLGPRCIKAFTECCVVASQLRANISHKDMQLGR | 2.9 nM | – | – | – | – | – | – | – | – | – | – | – | – | – | – |
| RefMAB #1 (antibody, human IgG1, kappa, V domains shown, also called IPH5401; NNC0215-0384) VH: EVQLVESGGGLVQPGGSLRLSCAASGFTFSSYVMHWVRQATGKGLEWVSAIDTGGGTYYADSVKGRFTISRENAKNSLYLQMNSLRAGDTAVYYCARDYYYYASGSYYKAFDIWGQGTMVTVSS VL: EIVLTQSPGTLSLSPGERATLSCRASQSVSSRYLAWYQQKPGQAPRLLIYGASSRATGIPDRFSGSGSGTDFTLTISRLEPEDFAVYYCQQYGSPLTFGQGTKLEIKR | – | 1.1 nM | no binding (tested: 300 nM) | no binding (tested: ~250 nM) | 10 nM | 10.2 nM | 6.5 nM | 1.8 nM | 5.3 nM | 3.1 nM | 84.2% | 38.9% | 6.4% | 12 nM | 291 nM |

From patent US20240400657A1 (MorphoSys, published 2024)
